Experimental data taken from article PMC5102900, “ROS-Mediated Inhibition of S-nitrosoglutathione Reductase Contributes to the Activation of Anti-oxidative Mechanisms” (Frontiers in Plant Science, 2016).

Target: the molecule itself
Experiment: SEC-MALS; size exclusion chromatography (Superdex 200 10/300 GL, 4°C) with static light scattering (right-angle, Viscotek TDA 305, 30°C); 50 mM Tris-HCl pH 8.0, 200 mM NaCl, with 10 mM DTT (reduced sample) or without (sample oxidized by 1 mM H2O2); approximately 1.5 mg/ml, 100 ul applied

| Protein | stoichiometry N |
| --- | --- |
| Arabidopsis thaliana S-nitrosoglutathione reductase (GSNOR), recombinant His6-GSNOR, reduced (enzyme, UniProt Q96533 1-379, looked up, S-nitrosoglutathione reductase (GSNOR; glutathione-dependent formaldehyde dehydrogenase, class III alcohol dehydrogenase), Arabidopsis thaliana, At5g43940; Expressed from pDEST17 (Gateway); Run in buffer with 10 mM DTT; also called AtGSNOR; GSNO-reductase; source: E. coli BL21 DE3 pLysS, purified (Ni-NTA under reducing condition, followed by Äkta purification); not shown: His6, N-terminal, kept) MATQGQVITCKAAVAYEPNKPLVIEDVQVAPPQAGEVRIKILYTALCHTDAYTWSGKDPEGLFPCILGHEAAGIVESVGEGVTEVQAGDHVIPCYQAECRECKFCKSGKTNLCGKVRSATGVGIMMNDRKSRFSVNGKPIYHFMGTSTFSQYTVVHDVSVAKIDPTAPLDKVCLLGCGVPTGLGAVWNTAKVEPGSNVAIFGLGTVGLAVAEGAKTAGASRIIGIDIDSKKYETAKKFGVNEFVNPKDHDKPIQEVIVDLTDGGVDYSFECIGNVSVMRAALECCHKGWGTSVIVGVAASGQEISTRPFQLVTGRVWKGTAFGGFKSRTQVPWLVEKYMNKEIKVDEYITHNLTLGEINKAFDLLHEGTCLRCVLDTSK | 2 |
| Arabidopsis thaliana S-nitrosoglutathione reductase (GSNOR), recombinant His6-GSNOR, oxidized with 1 mM H2O2 (enzyme, UniProt Q96533 1-379, looked up, oxidized by 1 mM H2O2 (oxidative modifications of cysteine residues; which residues at this concentration is not stated), S-nitrosoglutathione reductase (GSNOR; glutathione-dependent formaldehyde dehydrogenase, class III alcohol dehydrogenase), Arabidopsis thaliana, At5g43940; Same construct as m1, treated with H2O2 (200 ug GSNOR, 1 mM H2O2) and run without DTT; Mass spectrometry at 0.5 and 5 mM H2O2 found reversible and sulfinic or sulfonic modifications on most detected cysteines, among them Cys47 and Cys177; also …) MATQGQVITCKAAVAYEPNKPLVIEDVQVAPPQAGEVRIKILYTALCHTDAYTWSGKDPEGLFPCILGHEAAGIVESVGEGVTEVQAGDHVIPCYQAECRECKFCKSGKTNLCGKVRSATGVGIMMNDRKSRFSVNGKPIYHFMGTSTFSQYTVVHDVSVAKIDPTAPLDKVCLLGCGVPTGLGAVWNTAKVEPGSNVAIFGLGTVGLAVAEGAKTAGASRIIGIDIDSKKYETAKKFGVNEFVNPKDHDKPIQEVIVDLTDGGVDYSFECIGNVSVMRAALECCHKGWGTSVIVGVAASGQEISTRPFQLVTGRVWKGTAFGGFKSRTQVPWLVEKYMNKEIKVDEYITHNLTLGEINKAFDLLHEGTCLRCVLDTSK | 2 |
